The source of these data is US20170184612A1, “USE OF LEUKOCYTES AND NOVEL BIOMARKERS IN THE DIAGNOSIS, CONFIRMATION, AND TREATMENT OF A NEUROLOGICAL DISORDER” (The Trustees of Columbia University in the City of New York, priority 2014, published 2017).

In the test the target is SIINFEKL-MHC-I (SIINFEKL peptide bound to MHC-I H-2Kb) (chicken; mouse). Put plainly: cell-based or functional assay.

Sequence “T cell receptor of OT-1 CD8+ T cells (TCR)” came in with a neuronal death (TH+ neurons killed by CTLs) of 55%.
